Measurements as given in publication PMC7594083, “Preclinical Evaluation of the GRPR-Targeting Antagonist RM26 Conjugated to the Albumin-Binding Domain for GRPR-Targeting Therapy of Cancer” (Pharmaceutics, 2020).

Tests used:
[1] = Biodistribution in mice bearing PC-3 xenografts; format: in vivo, mice (BALB/c nu/nu female); settings: mouse, in vivo, iv, 40 pmol, 40 pmol i.v., 1 h pi, 4 mice, SD; read-out: activity concentration in blood 1 h pi
Description: (§1) Instant thin-layer chromatography (ITLC) results were analyzed using Cyclone® Plus (PerkinElmer). […] BALB/c nu/nu female mice were implanted subcutaneously with PC-3 cells in PBS (6.5 × 10^6 cells/mouse) on the hind leg. […] A group of four mice was used per data point. […] After euthanization, the organs of interest were collected and weighed, and the radioactivity content was measured on a gamma counter.

[2] = tested on: PC-3 xenografts; test: Biodistribution in mice bearing PC-3 xenografts; format: in vivo, mice (BALB/c nu/nu female)
Description: as §1

[3] = Thermal melting by circular dichroism; format: physicochemical; settings: pH 7.4
[4] = target: gastrin-releasing peptide receptor (human (endogenous in PC-3)) (UniProt P30550); test: radioligand binding
gastrin-releasing peptide receptor (human (endogenous in PC-3)), sequence (P30550 whole entry): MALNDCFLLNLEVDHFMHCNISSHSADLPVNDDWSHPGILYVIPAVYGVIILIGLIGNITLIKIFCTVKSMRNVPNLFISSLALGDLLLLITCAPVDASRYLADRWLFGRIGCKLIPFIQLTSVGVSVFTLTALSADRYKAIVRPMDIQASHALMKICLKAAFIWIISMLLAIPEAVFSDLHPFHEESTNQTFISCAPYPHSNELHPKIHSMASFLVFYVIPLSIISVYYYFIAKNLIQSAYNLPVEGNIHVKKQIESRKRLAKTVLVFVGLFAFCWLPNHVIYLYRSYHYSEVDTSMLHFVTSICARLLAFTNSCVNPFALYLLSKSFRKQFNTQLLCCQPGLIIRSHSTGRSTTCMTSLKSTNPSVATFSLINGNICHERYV

For `CC(C)C[C@H](NC(=O)C[C@H](O)[C@H](CC(C)C)NC(=O)[C@H](Cc1c[nH]cn1)NC(=O)CNC(=O)[C@@H](NC(=O)[C@H](C)NC(=O)[C@H](Cc1c[nH]c2ccccc12)NC(=O)[C@H](CCC(N)=O)NC(=O)[C@@H](Cc1ccccc1)NC(=O)COCCOCCNC(=O)CN1CCN(CC(=O)O)CCN(CC(=O)O)CCN(CC(=O)O)CC1)C(C)C)C(N)=O` [[^111In]In-DOTA-RM26, metal not drawn, reference compound], the tissue uptake at 1 h [1] was 0.27 ± 0.04 %ID/g and the “pancreas and tumor uptake, [^111In]In-DOTA-ABD-RM26 vs [^111In]In-DOTA-RM26” value ([2]; 1 h pi) was “on the same level for both radiolabelled conjugates”.

With “AMALAEAKVLANRELDKYGVSDFYKRLINKAKTVEGVEALKLHILAALP [ABD035, recombinant control protein, reference compound]” the “melting temperature (Tm)” value [3] was 54 °C.

In the case of DOTA-ABD-RM26 (designed binder), the IC50 [4] is reported as 0.03 µM.

In the case of “DOTA-ABD-RM26 bound to human serum albumin (from UniProt P02768 25-609) (complex)”, the IC50 [4] is reported as 0.049 µM.

In the case of `CC[C@H](C)[C@H](NC(=O)[C@H](Cc1c[nH]cn1)NC(=O)[C@H](CC(C)C)NC(=O)[C@H](CCCCN)NC(=O)[C@H](CC(C)C)NC(=O)[C@H](C)NC(=O)[C@H](CCC(=O)O)NC(=O)[C@@H](NC(=O)CNC(=O)[C@H](CCC(=O)O)NC(=O)[C@@H](NC(=O)[C@@H](NC(=O)[C@H](CCCCN)NC(=O)[C@H](C)NC(=O)[C@H](CCCCN)NC(=O)[C@H](CC(N)=O)NC(=O)[C@@H](NC(=O)[C@H](CC(C)C)NC(=O)[C@H](CCCNC(=N)N)NC(=O)[C@H](CCCCN)NC(=O)[C@H](Cc1ccc(O)cc1)NC(=O)[C@H](Cc1ccccc1)NC(=O)[C@H](CC(=O)O)NC(=O)[C@H](CO)NC(=O)[C@@H](NC(=O)CNC(=O)[C@H](Cc1ccc(O)cc1)NC(=O)[C@H](CCCCNC(=O)CSCCC(=O)NCCOCCOCCOCCOCCC(=O)N[C@H](Cc1ccccc1)C(=O)N[C@@H](CCC(N)=O)C(=O)N[C@@H](Cc1c[nH]c2ccccc12)C(=O)N[C@@H](C)C(=O)N[C@H](C(=O)NCC(=O)N[C@@H](Cc1c[nH]cn1)C(=O)N[C@@H](CC(C)C)[C@@H](O)CC(=O)N[C@@H](CC(C)C)C(N)=O)C(C)C)NC(=O)[C@H](CC(=O)O)NC(=O)[C@H](CC(C)C)NC(=O)[C@H](CCC(=O)O)NC(=O)[C@H](CCCNC(=N)N)NC(=O)[C@H](CC(N)=O)NC(=O)[C@H](C)NC(=O)[C@H](CC(C)C)NC(=O)[C@@H](NC(=O)[C@H](CCCCN)NC(=O)[C@H](C)NC(=O)[C@H](CCC(=O)O)NC(=O)[C@H](C)NC(=O)[C@H](CC(C)C)NC(=O)CN1CCN(CC(=O)O)CCN(CC(=O)O)CCN(CC(=O)O)CC1)C(C)C)C(C)C)[C@@H](C)CC)[C@@H](C)O)C(C)C)C(C)C)C(=O)N[C@@H](CC(C)C)C(=O)N[C@@H](C)C(=O)N[C@@H](C)C(=O)N[C@@H](CC(C)C)C(=O)N1CCC[C@H]1C(N)=O` [DOTA-ABD-RM26], the “uptake in pancreas, intestines and xenografts, ABD-coupled vs parental RM26” value ([2]; 1 h pi, discussion) is reported as “activity uptake was equal both for ABD-coupled and parental RM26”, the “kidney uptake vs tumor uptake” value ([2]; all studied time points, 1-144 h pi) is reported as “higher than that in tumors at all studied time points” and the “uptake in liver and bone” value ([2]; up to 144 h pi) is reported as “elevated up to 144 h pi”.
